Test results as given in IntAct's records for PubMed 25910212.

B1: Lipopolysaccharide-induced tumor necrosis factor-alpha factor (Homo sapiens), Q99732 (parent)
chain: MSVPGPYQAATGPSSAPSAPPSYEETVAVNSYYPTPPAPMPGPTTGLVTGPDGKGMNPPSYYTQPAPIPNNNPITVQTVYVQHPITFLDRPIQMCCPSCNKMIVSQLSYNAGALTWLSCGSLCLLGCIAGCCFIPFCVDALQDVDHYCPNCRALLGTYKRL
B2: U4/U6 small nuclear ribonucleoprotein Prp31 (Homo sapiens), Q8WWY3 (parent)
chain: MSLADELLADLEEAAEEEEGGSYGEEEEEPAIEDVQEETQLDLSGDSVKTIAKLWDSKMFAEIMMKIEEYISKQAKASEVMGPVEAAPEYRVIVDANNLTVEIENELNIIHKFIRDKYSKRFPELESLVPNALDYIRTVKELGNSLDKCKNNENLQQILTNATIMVVSVTASTTQGQQLSEEELERLEEACDMALELNASKHRIYEYVESRMSFIAPNLSIIIGASTAAKIMGVAGGLTNLSKMPACNIMLLGAQRKTLSGFSSTSVLPHTGYIYHSDIVQSLPPDLRRKAARLVAAKCTLAARVDSFHESTEGKVGYELKDEIERKFDKWQEPPPVKQVKPLPAPLDGQRKKRGGRRYRKMKERLGLTEIRKQANRMSFGEIEEDAYQEDLGFSLGHLGKSGSGRVRQTQVNEATKARISKTLQRTLQKQSVVYGGKSTIRDRSSGTASSVAFTPLQGLEIVNPQAAEKKVAEANQKYFSSMAEFLKVKGEKSGLMST
partner: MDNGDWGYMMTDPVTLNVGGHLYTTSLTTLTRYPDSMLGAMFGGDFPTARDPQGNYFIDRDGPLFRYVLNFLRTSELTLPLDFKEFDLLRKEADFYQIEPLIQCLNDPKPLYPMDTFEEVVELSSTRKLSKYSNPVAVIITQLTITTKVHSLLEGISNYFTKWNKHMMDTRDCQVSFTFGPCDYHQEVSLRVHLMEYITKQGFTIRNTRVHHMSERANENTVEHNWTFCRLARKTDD
B3: Meiotic recombination protein DMC1/LIM15 homolog (Homo sapiens), Q14565 (parent)
chain: MKEDQVVAEEPGFQDEEESLFQDIDLLQKHGINVADIKKLKSVGICTIKGIQMTTRRALCNVKGLSEAKVDKIKEAANKLIEPGFLTAFEYSEKRKMVFHITTGSQEFDKLLGGGIESMAITEAFGEFRTGKTQLSHTLCVTAQLPGAGGYPGGKIIFIDTENTFRPDRLRDIADRFNVDHDAVLDNVLYARAYTSEHQMELLDYVAAKFHEEAGIFKLLIIDSIMALFRVDFSGRGELAERQQKLAQMLSRLQKISEEYNVAVFVTNQMTADPGATMTFQADPKKPIGGHILAHASTTRISLRKGRGELRIAKIYDSPEMPENEATFAITAGGIGDAKE
B4: U4/U6 small nuclear ribonucleoprotein Prp31 (Homo sapiens), Q8WWY3 (parent)
chain: B2 chain
partner: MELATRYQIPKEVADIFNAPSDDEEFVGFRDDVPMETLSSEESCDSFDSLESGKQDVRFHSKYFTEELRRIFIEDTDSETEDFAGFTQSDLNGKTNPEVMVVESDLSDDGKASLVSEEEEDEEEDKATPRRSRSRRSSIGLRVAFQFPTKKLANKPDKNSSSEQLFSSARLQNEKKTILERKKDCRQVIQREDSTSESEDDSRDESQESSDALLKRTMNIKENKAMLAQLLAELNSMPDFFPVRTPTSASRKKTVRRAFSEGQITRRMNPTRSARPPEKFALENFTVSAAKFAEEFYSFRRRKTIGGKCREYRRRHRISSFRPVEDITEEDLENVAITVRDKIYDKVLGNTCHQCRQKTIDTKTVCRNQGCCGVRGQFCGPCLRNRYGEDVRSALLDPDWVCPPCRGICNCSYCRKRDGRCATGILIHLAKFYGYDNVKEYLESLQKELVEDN
B5: U4/U6 small nuclear ribonucleoprotein Prp31 (Homo sapiens), Q8WWY3 (parent)
chain: B2 chain
partner: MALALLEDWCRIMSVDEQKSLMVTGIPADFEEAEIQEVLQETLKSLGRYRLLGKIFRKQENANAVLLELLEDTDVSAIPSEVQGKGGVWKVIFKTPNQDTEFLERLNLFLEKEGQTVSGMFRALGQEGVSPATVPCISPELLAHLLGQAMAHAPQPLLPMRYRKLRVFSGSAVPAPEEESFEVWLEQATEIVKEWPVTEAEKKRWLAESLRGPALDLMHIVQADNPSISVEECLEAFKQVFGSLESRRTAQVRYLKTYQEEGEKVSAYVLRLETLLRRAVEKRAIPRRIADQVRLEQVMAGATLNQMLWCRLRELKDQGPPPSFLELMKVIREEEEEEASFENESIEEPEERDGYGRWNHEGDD
B6: Alpha-crystallin B chain (Homo sapiens), P02511 (parent)
chain: MDIAIHHPWIRRPFFPFHSPSRLFDQFFGEHLLESDLFPTSTSLSPFYLRPPSFLRAPSWFDTGLSEMRLEKDRFSVNLDVKHFSPEELKVKVLGDVIEVHGKHEERQDEHGFISREFHRKYRIPADVDPLTITSSLSSDGVLTVNGPRKQVSGPERTIPITREEKPAVTAAPKK
partner: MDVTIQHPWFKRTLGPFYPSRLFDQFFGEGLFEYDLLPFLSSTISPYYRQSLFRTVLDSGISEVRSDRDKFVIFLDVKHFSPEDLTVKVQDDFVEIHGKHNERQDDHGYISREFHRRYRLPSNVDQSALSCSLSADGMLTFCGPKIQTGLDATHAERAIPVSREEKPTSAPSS
B7: U4/U6 small nuclear ribonucleoprotein Prp3 (Homo sapiens), O43395 (parent)
chain: MALSKRELDELKPWIEKTVKRVLGFSEPTVVTAALNCVGKGMDKKKAADHLKPFLDDSTLRFVDKLFEAVEEGRSSRHSKSSSDRSRKRELKEVFGDDSEISKESSGVKKRRIPRFEEVEEEPEVIPGPPSESPGMLTKLQIKQMMEAATRQIEERKKQLSFISPPTPQPKTPSSSQPERLPIGNTIQPSQAATFMNDAIEKARKAAELQARIQAQLALKPGLIGNANMVGLANLHAMGIAPPKVELKDQTKPTPLILDEQGRTVDATGKEIELTHRMPTLKANIRAVKREQFKQQLKEKPSEDMESNTFFDPRVSIAPSQRQRRTFKFHDKGKFEKIAQRLRTKAQLEKLQAEISQAARKTGIHTSTRLALIAPKKELKEGDIPEIEWWDSYIIPNGFDLTEENPKREDYFGITNLVEHPAQLNPPVDNDTPVTLGVYLTKKEQKKLRRQTRREAQKELQEKVRLGLMPPPEPKVRISNLMRVLGTEAVQDPTKVEAHVRAQMAKRQKAHEEANAARKLTAEQRKVKKIKKLKEDISQGVHISVYRVRNLSNPAKKFKIEANAGQLYLTGVVVLHKDVNVVVVEGGPKAQKKFKRLMLHRIKWDEQTSNTKGDDDEESDEEAVKKTNKCVLVWEGTAKDRSFGEMKFKQCPTENMAREHFKKHGAEHYWDLALSESVLESTD
B8: ATP synthase mitochondrial F1 complex assembly factor 2 (Homo sapiens), Q8N5M1 (parent)
chain: MWRSCLRLRDGGRRLLNRPAGGPSASMSPGPTIPSPARAYAPPTERKRFYQNVSITQGEGGFEINLDHRKLKTPQAKLFTVPSEALAIAVATEWDSQQDTIKYYTMHLTTLCNTSLDNPTQRNKDQLIRAAVKFLDTDTICYRVEEPETLVELQRNEWDPIIEWAEKRYGVEISSSTSIMGPSIPAKTREVLVSHLASYNTWALQGIEFVAAQLKSMVLTLGLIDLRLTVEQAVLLSRLEEEYQIQKWGNIEWAHDYELQELRARTAAGTLFIHLCSESTTVKHKLLKE
partner: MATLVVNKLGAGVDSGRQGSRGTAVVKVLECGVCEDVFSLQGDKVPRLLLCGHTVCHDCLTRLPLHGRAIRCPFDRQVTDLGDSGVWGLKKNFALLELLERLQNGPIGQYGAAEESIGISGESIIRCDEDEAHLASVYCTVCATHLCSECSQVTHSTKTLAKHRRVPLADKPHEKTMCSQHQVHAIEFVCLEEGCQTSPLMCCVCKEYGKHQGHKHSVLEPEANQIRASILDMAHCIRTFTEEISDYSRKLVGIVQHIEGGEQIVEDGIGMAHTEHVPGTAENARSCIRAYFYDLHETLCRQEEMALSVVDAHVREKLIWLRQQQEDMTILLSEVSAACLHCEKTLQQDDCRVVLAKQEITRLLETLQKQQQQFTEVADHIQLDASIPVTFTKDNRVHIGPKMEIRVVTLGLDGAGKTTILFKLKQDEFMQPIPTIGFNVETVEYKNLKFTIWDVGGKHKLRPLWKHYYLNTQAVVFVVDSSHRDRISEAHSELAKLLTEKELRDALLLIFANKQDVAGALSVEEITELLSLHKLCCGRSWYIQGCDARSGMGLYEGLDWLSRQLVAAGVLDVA

Variants of: B1
Conditions: with UBQLN1, Q9UMX0-2
Sequence of UBQLN1, Q9UMX0-2 (Q9UMX0 other isoform, or with tags, fused parts or gaps): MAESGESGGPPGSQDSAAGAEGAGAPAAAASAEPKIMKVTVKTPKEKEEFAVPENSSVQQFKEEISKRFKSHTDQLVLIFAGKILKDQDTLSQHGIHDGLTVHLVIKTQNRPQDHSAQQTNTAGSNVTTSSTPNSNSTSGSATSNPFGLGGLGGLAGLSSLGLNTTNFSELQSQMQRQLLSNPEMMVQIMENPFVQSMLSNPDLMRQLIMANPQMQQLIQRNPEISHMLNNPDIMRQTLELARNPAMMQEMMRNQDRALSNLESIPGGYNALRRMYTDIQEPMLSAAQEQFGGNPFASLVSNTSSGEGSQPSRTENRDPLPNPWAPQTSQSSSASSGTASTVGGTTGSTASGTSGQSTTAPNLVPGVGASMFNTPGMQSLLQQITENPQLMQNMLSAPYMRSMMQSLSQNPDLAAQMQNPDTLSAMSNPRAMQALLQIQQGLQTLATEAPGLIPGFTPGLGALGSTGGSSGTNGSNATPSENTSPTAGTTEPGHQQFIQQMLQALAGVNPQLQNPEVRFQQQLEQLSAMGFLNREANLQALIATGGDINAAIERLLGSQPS

| Variant | effect of a mutation on the interaction |
| --- | --- |
| A111G | disrupting interaction strength |

Variants of: B1
Conditions: with stam2_human STAM2, O75886

| Variant | effect of a mutation on the interaction |
| --- | --- |
| A111G | disrupting interaction strength |

Variants of: B1
Conditions: with reep6_human REEP6, Q96HR9
Sequence of reep6_human REEP6, Q96HR9 (Q96HR9 whole entry): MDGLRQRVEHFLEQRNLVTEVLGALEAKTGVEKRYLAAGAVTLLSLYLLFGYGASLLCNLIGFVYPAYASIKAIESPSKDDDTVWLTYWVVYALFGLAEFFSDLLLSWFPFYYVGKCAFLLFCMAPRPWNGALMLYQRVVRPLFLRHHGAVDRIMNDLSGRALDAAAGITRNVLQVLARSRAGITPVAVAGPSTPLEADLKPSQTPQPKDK

| Variant | effect of a mutation on the interaction |
| --- | --- |
| A111G | disrupting interaction strength |

Variants of: B1
Conditions: with hgs_human HGS

| Variant | effect of a mutation on the interaction |
| --- | --- |
| A111G | disrupting interaction strength |

Variants of: B1
Conditions: with OPTN

| Variant | effect of a mutation on the interaction |
| --- | --- |
| A111G | disrupting interaction strength |

Variants of: B2
Conditions: with kctd6_human KCTD6, Q8NC69

| Variant | effect of a mutation on the interaction |
| --- | --- |
| L107V | with no effect |

Variants of: B3
Conditions: with psa3_human PSMA3, P25788
Sequence of psa3_human PSMA3, P25788 (P25788 whole entry): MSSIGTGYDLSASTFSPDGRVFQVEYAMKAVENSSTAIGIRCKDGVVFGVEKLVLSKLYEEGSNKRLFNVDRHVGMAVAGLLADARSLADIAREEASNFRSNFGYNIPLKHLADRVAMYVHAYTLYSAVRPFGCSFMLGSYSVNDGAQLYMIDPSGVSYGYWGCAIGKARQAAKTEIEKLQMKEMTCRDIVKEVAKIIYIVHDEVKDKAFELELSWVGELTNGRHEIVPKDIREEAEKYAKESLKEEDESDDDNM

| Variant | effect of a mutation on the interaction |
| --- | --- |
| M200V | disrupting interaction strength |

Variants of: B3
Conditions: with sdcb1_human SDCBP

| Variant | effect of a mutation on the interaction |
| --- | --- |
| M200V | disrupting interaction strength |

Variants of: B4
Conditions: with CDCA7L

| Variant | effect of a mutation on the interaction |
| --- | --- |
| L107V | with no effect |

Variants of: B5
Conditions: with pnma2_human PNMA2, Q9UL42

| Variant | effect of a mutation on the interaction |
| --- | --- |
| L107V | with no effect |

Variants of: B6
Conditions: with cryaa_human CRYAA

| Variant | effect of a mutation on the interaction |
| --- | --- |
| D140N | with no effect |
| P20S | with no effect |
| R56W | with no effect |
| R120G | with no effect |

Variants of: B7
Conditions: with psmd3_human PSMD3, O43242
Sequence of psmd3_human PSMD3, O43242 (O43242 whole entry): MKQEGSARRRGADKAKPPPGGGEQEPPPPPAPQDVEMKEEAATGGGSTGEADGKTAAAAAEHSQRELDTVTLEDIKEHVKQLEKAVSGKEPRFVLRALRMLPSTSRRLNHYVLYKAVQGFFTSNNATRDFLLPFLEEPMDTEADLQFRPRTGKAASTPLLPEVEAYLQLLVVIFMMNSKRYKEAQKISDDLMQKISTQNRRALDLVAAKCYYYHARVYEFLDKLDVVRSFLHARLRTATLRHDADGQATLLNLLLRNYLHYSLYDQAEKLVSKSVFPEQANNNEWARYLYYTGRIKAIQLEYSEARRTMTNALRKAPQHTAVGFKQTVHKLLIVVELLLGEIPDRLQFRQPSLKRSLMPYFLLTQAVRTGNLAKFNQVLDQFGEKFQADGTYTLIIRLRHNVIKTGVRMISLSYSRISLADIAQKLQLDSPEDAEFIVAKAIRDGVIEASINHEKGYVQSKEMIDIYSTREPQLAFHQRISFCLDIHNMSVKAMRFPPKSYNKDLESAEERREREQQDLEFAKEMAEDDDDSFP

| Variant | effect of a mutation on the interaction |
| --- | --- |
| P493S | disrupting interaction strength |
| A489D | disrupting interaction strength |
| T494M | disrupting interaction strength |

Variants of: B7
Conditions: with fam9b_human FAM9B

| Variant | effect of a mutation on the interaction |
| --- | --- |
| P493S | with no effect |
| A489D | with no effect |
| T494M | disrupting interaction strength |

Variants of: B8
Conditions: with tri23_human TRIM23, P36406

| Variant | effect of a mutation on the interaction |
| --- | --- |
| W94R | disrupting interaction strength |
